Experimental data reported in publication PMC13200811 (Cell, 2025).
Positions count from the first letter of the chain named. Names and notes keep the numbering of the source. Where two headings read alike, the source gives them in different places. Values belong to the molecule of their own block, whether it stands above or below them.

Experiments:
[1] = biological target: BCL-wΔNΔC (aa 40-156; α2-α8) (human) (UniProt Q92843); assay: SEC
[2] = biological target: BCL-wΔN (aa 40-193; α2-α9) (human) (UniProt Q92843); assay: SEC
SEC [3] = biological target: the molecule itself; assay: SEC
SEC [4] = biological target: the molecule itself; assay: SEC; remark: listed apart in the source
[5] = biological target: T1, full-length monomeric BCL-w (aa 1-193) (human), Q92843; assay: SEC-MALS; settings: remark: other sources report otherwise
T1 chain: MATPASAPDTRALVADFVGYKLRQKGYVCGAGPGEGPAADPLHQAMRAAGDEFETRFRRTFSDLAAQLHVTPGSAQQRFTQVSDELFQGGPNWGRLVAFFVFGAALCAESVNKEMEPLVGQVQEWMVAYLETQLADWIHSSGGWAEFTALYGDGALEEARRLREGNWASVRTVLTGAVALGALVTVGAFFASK

[6] = biological target: T1, full-length monomeric BCL-w (aa 1-193) …; assay: SEC-SAXS; settings: remark: other sources report otherwise

B1: GFP-BCL-w α1-α8 (aa 1-156) (domain or fragment, human, UniProt Q92843 1-156, looked up)
chain: MATPASAPDTRALVADFVGYKLRQKGYVCGAGPGEGPAADPLHQAMRAAGDEFETRFRRTFSDLAAQLHVTPGSAQQRFTQVSDELFQGGPNWGRLVAFFVFGAALCAESVNKEMEPLVGQVQEWMVAYLETQLADWIHSSGGWAEFTALYGDGAL
stoichiometry N (SEC [3]): 2

B2: BCL-wΔC (aa 1-156; α1-α8) (domain or fragment, human, UniProt Q92843 1-156, looked up)
chain: B1 chain
stoichiometry N (SEC [4]): 2

B4: BCL-w G94E (full length) (natural protein, human, UniProt Q92843 1-193, looked up)
chain: T1 chain with G94E
stoichiometry N (SEC [4]): 2

The next lines start with the values.

stoichiometry N [1]: 2
Molecule: BCL-wΔNΔC (aa 40-156; α2-α8) (from UniProt Q92843 40-156) (domain or fragment)

stoichiometry N [2]: 2
Molecule: BCL-wΔN (aa 40-193; α2-α9) (from UniProt Q92843 40-193) (domain or fragment)

stoichiometry N [5]: 2
stoichiometry N [6]: 2
B3: full-length monomeric BCL-w (aa 1-193), Q92843 1-193 (natural protein)
chain: T1 chain
